The labels stand for the following.
B1: glmS ribozyme (parent)
chain: AUAAAAGCGCCAGAACUACAGAAAUGUAGUUGACGAGGAGGAGGUUUAUCGAAUUUUCGGCGGAUGCCUCCAAA

± gives the standard error. For some of these results: Fewer inactive variants are shown than the library holds.

Conditions in all cases: with glucosamine-6-phosphate
The variants in data set [1] derive from B1. Description: kcat; higher = faster cleavage; RNA array. In outline:
(§1)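 The measurements used barcoded ribozyme variants on sequenced MiSeq chips, transcribed in situ by E. coli RNA polymerase and tracked at 37 °C with a hybridised Cy3 probe. Glucosamine-6-phosphate, 40 μM to 10 mM in HEPES/KCl/Mg(OAc)2 buffer, was flowed in while tiles were imaged over ~14 h. Baseline-normalised signals, also normalised to non-cleaving reference variants, gave per-tile medians that were fit to one- or two-exponential decays for kobs. kcat and KM resulted from weighted Michaelis–Menten fits across concentrations.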

The variants in data set [2] derive from B1. Briefly: self-cleavage kobs at 40 uM GlcN6P; higher = faster cleavage; RNA array. In outline:
as §1

The variants in data set [3] derive from B1. Description: self-cleavage kobs at 160 uM GlcN6P; higher = faster cleavage; RNA array. In short, it runs like this: as §1
In data set [4] the parent is B1. Briefly: self-cleavage kobs at 2500 uM GlcN6P; higher = faster cleavage; RNA array. In outline: as §1
In data set [5] the parent is B1. Briefly: self-cleavage kobs at 10000 uM GlcN6P; higher = faster cleavage; RNA array. In short, it runs like this:
as §1

Variants of B1 are the subject of data set [6]. Briefly: self-cleavage kobs at 640 uM GlcN6P; higher = faster cleavage; RNA array. In short, it runs like this:
as §1

Variants of B1 are the subject of data set [7]. Briefly: KM; higher = weaker cofactor use; RNA array. In short, it runs like this:
as §1

As a reminder, the kcat is the number of substrate molecules converted per active site and unit of time at saturation. In the case of A39U A48G, the turnover number (kcat) in data set [1] was 0.000105 ± 2.3e-05 s⁻¹. The “self-cleavage kobs at 40 uM GlcN6P” value in data set [2] was less than 1e-05 s⁻¹. Also, the “self-cleavage kobs at 160 uM GlcN6P” value in data set [3] is less than 1e-05 s⁻¹. Besides, in data set [4], the “self-cleavage kobs at 2500 uM GlcN6P” value was 6.61e-05 ± 1.5e-05 s⁻¹. The “self-cleavage kobs at 10000 uM GlcN6P” value in data set [5] came out at 8.13e-05 ± 1.5e-05 s⁻¹.
For C61A C68A, the kcat in data set [1] came out at 1.17e-05 ± 1.8e-06 s⁻¹.
Regarding C11A C34G G60U A64G, the kcat in data set [1] is less than 1e-05 s⁻¹. In data set [2], the “self-cleavage kobs at 40 uM GlcN6P” value was less than 1e-05 s⁻¹. Further, the “self-cleavage kobs at 640 uM GlcN6P” value in data set [6] was less than 1e-05 s⁻¹.
For orientation: KM means the concentration of substrate that gives half-maximal velocity. For A33U C71U, the kcat in data set [1] stood at 0.000125 ± 1.3e-05 s⁻¹. Moreover, the KM in data set [7] turned out to be 2.84 ± 0.69 mM. Also, the “self-cleavage kobs at 640 uM GlcN6P” value in data set [6] turned out to be 3.01e-05 ± 7.2e-06 s⁻¹. Also, the “self-cleavage kobs at 2500 uM GlcN6P” value in data set [4] was determined as 5.58e-05 ± 5.4e-06 s⁻¹. Besides, in data set [5], the “self-cleavage kobs at 10000 uM GlcN6P” value turned out to be 0.0001 ± 9.1e-06 s⁻¹.
Taken in the same sequence, the figures for A39G G43A were 0.0004 ± 8.6e-05 s⁻¹, 5.96 ± 2.1 mM, 5.25e-05 ± 1.8e-05 s⁻¹, 0.000109 ± 2.1e-05 s⁻¹ and 0.000259 ± 4.9e-05 s⁻¹.
A42U U56A: in data set [1], the turnover number (kcat) was determined as 0.000109 ± 7.4e-06 s⁻¹. Also, in data set [7], the KM was determined as 3.23 ± 0.71 mM. For the same variant, the “self-cleavage kobs at 2500 uM GlcN6P” value in data set [4] was determined as 4.97e-05 ± 1.4e-05 s⁻¹. Besides, in data set [5], the “self-cleavage kobs at 10000 uM GlcN6P” value is 8.21e-05 ± 9.2e-06 s⁻¹.
Turning to G35A G38C, the kcat in data set [1] is less than 1e-05 s⁻¹. The “self-cleavage kobs at 640 uM GlcN6P” value in data set [6] was less than 1e-05 s⁻¹.
As for G35A G38U, in data set [1], the catalytic constant (kcat) was less than 1e-05 s⁻¹. The “self-cleavage kobs at 160 uM GlcN6P” value in data set [3] was less than 1e-05 s⁻¹.
For A48U U54A, the turnover number (kcat) in data set [1] is 0.000682 ± 2.5e-05 s⁻¹. In data set [7], the KM is 3.13 ± 0.21 mM. Also, the “self-cleavage kobs at 160 uM GlcN6P” value in data set [3] was 3.6e-05 ± 1.3e-05 s⁻¹. In addition, the “self-cleavage kobs at 640 uM GlcN6P” value in data set [6] came out at 0.000113 ± 2.8e-05 s⁻¹. Also, the “self-cleavage kobs at 2500 uM GlcN6P” value in data set [4] amounted to 0.00029 ± 7.8e-05 s⁻¹. Also, the “self-cleavage kobs at 10000 uM GlcN6P” value in data set [5] came to 0.000524 ± 7.9e-05 s⁻¹.
Turning to C34U G43A, the turnover number (kcat) in data set [1] was less than 1e-05 s⁻¹. Moreover, the “self-cleavage kobs at 40 uM GlcN6P” value in data set [2] is less than 1e-05 s⁻¹. Further, the “self-cleavage kobs at 160 uM GlcN6P” value in data set [3] is less than 1e-05 s⁻¹.
With U54C, the kcat in data set [1] amounted to 0.0582 ± 0.0055 s⁻¹. Further, in data set [7], the Michaelis constant (KM) is 2.29 ± 0.24 mM. In data set [2], the “self-cleavage kobs at 40 uM GlcN6P” value turned out to be 0.00101 ± 1.9e-05 s⁻¹. Also, in data set [3], the “self-cleavage kobs at 160 uM GlcN6P” value is 0.00345 ± 0.00027 s⁻¹. The “self-cleavage kobs at 640 uM GlcN6P” value in data set [6] amounted to 0.0121 ± 0.0007 s⁻¹. In data set [4], the “self-cleavage kobs at 2500 uM GlcN6P” value was 0.0274 ± 0.0017 s⁻¹. Besides, the “self-cleavage kobs at 10000 uM GlcN6P” value in data set [5] came to 0.051 ± 0.0026 s⁻¹.
For the variant A48G C71U, the turnover number (kcat) in data set [1] was found to be 8.1e-05 ± 1.3e-05 s⁻¹. In addition, the “self-cleavage kobs at 640 uM GlcN6P” value in data set [6] amounted to 4.86e-05 ± 8.2e-06 s⁻¹. For the same variant, the “self-cleavage kobs at 2500 uM GlcN6P” value in data set [4] worked out at 0.000101 ± 1.1e-05 s⁻¹. The “self-cleavage kobs at 10000 uM GlcN6P” value in data set [5] came out at 7.03e-05 ± 6.3e-06 s⁻¹.
In the case of A12G A52G, the turnover number (kcat) in data set [1] worked out at 3.09e-05 ± 1e-05 s⁻¹. Also, the “self-cleavage kobs at 2500 uM GlcN6P” value in data set [4] came out at 5.02e-05 ± 1.5e-05 s⁻¹. In data set [5], the “self-cleavage kobs at 10000 uM GlcN6P” value was 2.49e-05 ± 8.8e-06 s⁻¹.
Consider A12C C67G, for which the turnover number (kcat) in data set [1] turned out to be 0.00173 ± 0.00067 s⁻¹. For the same variant, in data set [2], the “self-cleavage kobs at 40 uM GlcN6P” value turned out to be 6.89e-05 ± 6e-06 s⁻¹. Besides, the “self-cleavage kobs at 160 uM GlcN6P” value in data set [3] is 0.000199 ± 2.4e-05 s⁻¹. For the same variant, the “self-cleavage kobs at 640 uM GlcN6P” value in data set [6] is 0.000444 ± 5.8e-05 s⁻¹. In data set [4], the “self-cleavage kobs at 2500 uM GlcN6P” value came to 0.00106 ± 0.00012 s⁻¹. The “self-cleavage kobs at 10000 uM GlcN6P” value in data set [5] is 0.00265 ± 0.00032 s⁻¹.
Turning to A48C C71U, the kcat in data set [1] worked out at 0.000393 ± 1.6e-05 s⁻¹. In addition, in data set [7], the KM came out at 5.22 ± 0.39 mM. Also, the “self-cleavage kobs at 640 uM GlcN6P” value in data set [6] was 4.42e-05 ± 7.8e-06 s⁻¹. For the same variant, in data set [4], the “self-cleavage kobs at 2500 uM GlcN6P” value was 0.000123 ± 1.7e-05 s⁻¹. For the same variant, the “self-cleavage kobs at 10000 uM GlcN6P” value in data set [5] turned out to be 0.00026 ± 2.4e-05 s⁻¹.
Turning to C10G G60U, in data set [1], the kcat was 4.68e-05 ± 1.2e-05 s⁻¹. Moreover, the “self-cleavage kobs at 40 uM GlcN6P” value in data set [2] is less than 1e-05 s⁻¹. In addition, the “self-cleavage kobs at 160 uM GlcN6P” value in data set [3] is less than 1e-05 s⁻¹. Also, the “self-cleavage kobs at 10000 uM GlcN6P” value in data set [5] came to 2.05e-05 ± 1e-05 s⁻¹.
On to C68U U69A, for which the turnover number (kcat) in data set [1] came to 1.58e-05 ± 6.2e-06 s⁻¹. Besides, in data set [2], the “self-cleavage kobs at 40 uM GlcN6P” value is less than 1e-05 s⁻¹.
In the case of A12G C50G, the turnover number (kcat) in data set [1] was 1.17e-05 ± 2.1e-06 s⁻¹.
A15G A42C: the turnover number (kcat) in data set [1] is 1.26e-05 ± 4.1e-06 s⁻¹. For the same variant, the “self-cleavage kobs at 160 uM GlcN6P” value in data set [3] is less than 1e-05 s⁻¹.

Values taken from the supplement of paper PMC7125110.
